In US20070065429A1, “Nogo-receptor antagonists for the treatment of conditions involving amyloid plaques” (Biogen Idec MA Inc., priority 2003, published 2007):

Key:
NgR = biological target: T1, NgR (Homo sapiens, UniProt Q9BZR6); test: AP-Aβ(1-28) fusion protein binding to NgR-expressing COS cells; details: not to vector-transfected COS cells
T1 construct: expressed in transfected cells; host or cells: COS cells
T1 sequence (Q9BZR6 27-473): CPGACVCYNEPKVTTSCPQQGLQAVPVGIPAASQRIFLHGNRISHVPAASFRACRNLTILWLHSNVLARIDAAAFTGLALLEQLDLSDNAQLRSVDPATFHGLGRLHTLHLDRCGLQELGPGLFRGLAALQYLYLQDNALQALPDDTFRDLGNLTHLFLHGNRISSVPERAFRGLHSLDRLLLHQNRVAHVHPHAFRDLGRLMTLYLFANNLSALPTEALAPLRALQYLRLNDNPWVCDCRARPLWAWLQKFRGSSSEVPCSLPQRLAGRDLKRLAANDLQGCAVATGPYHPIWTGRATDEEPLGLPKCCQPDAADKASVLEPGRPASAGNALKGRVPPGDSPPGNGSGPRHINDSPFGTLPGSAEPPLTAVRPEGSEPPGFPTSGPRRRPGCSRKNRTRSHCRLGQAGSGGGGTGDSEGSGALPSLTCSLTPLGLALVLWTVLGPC
Text: We then investigated whether the Aβ region of APP is involved in its interaction with NgR—including whether the fibrillogenic Aβ42-3 peptide binds NgR. We created two fusion protein constructs containing alkaline phosphatase (AP) and the hydrophilic region of Aβ (amino acids 1-28) by fusing the coding sequence in frame with the signal sequence-6×His-placental alkaline phosphatase (AP) sequence of the vector pAP-6 (Nakamura et al., Neuron 2: 1093-1100, 1988). The AP-Aβ and Aβ-AP proteins both bound to NgR-expressing COS cells but not to vector-transfected COS cells. This binding was saturable with an apparent Kd of 60 nM. The interaction also was detected using purified Biotin-Aβ(1-40) in an ELISA-type assay with immobilized NgR.

Aβ peptides = test: Aβ peptide binding to wells coated with purified sNgR-Fc
Method: We analyzed whether Aβ (1-28) binding competed for NgR binding with other known ligands for NgR by allowing 250 nM soluble AP-Aβ(1-28) or AP-Nogo (1-33) to bind to wells coated with purified sNgR310-Fc in the presence of various concentrations of competing free Aβ. […] We observed that the Aβ peptides bind to both sNgR310-Fc and sNgR344-Fc. […] However, Aβ(1-28) displaced Aβ-AP binding but not AP-Nogo-66 (1-33) or AP-OMgp binding in competition assays. The Aβ peptide may begin to displace AP-MAG very slightly at high concentrations in our experiments. Thus, the Aβ binding site on NgR appears largely distinct from that for the myelin ligands NogoA, OMgp and MAG. Consistent with this, the presence of Aβ had little effect on myelin or Nogo-66 inhibition of neurite outgrowth.

[1] = test system: APPsw/PSEN-1(DeltaE9) double transgenic mice; test: Intracerebroventricular infusion into APPsw/PSEN-1(DeltaE9) double transgenic mice; format: in vivo; details: 2.5 mg per mouse over 56 days
Text: To examine the role of the NgR/APP/AB interactions in vivo, sNgR310-Fc (a NgR antagonist; see International Patent Application PCT/US03/25004) was infused into APPsw/PSEN-1(DeltaE9) double transgenic mice (from Jackson Laboratories). The sNgR310-Fc protein contains the entire LRR ligand-binding of the NgR fused to the Fc portion of IgG. To administer sNgR310-Fc protein, 5-month-old mice were anesthetized with isoflurane/oxygen and a burr hole was drilled in the skull. A cannula (ALZET brain infusion kit II, Alza Scientific Products, Palo Alto, Calif.) was introduced into the right lateral ventricle at stereotaxic coordinates 0.6 mm posterior and 1.2 mm lateral to bregma and 4.0 mm deep to the pial surface. The cannula was held in place with cyanoacrylate and the catheter was attached to a subcutaneous osmotic minipump (Alzet 2ML4). The pump delivered 2.5 μl/hr for 28 days of a 1.2 mg/ml solution of sNgR310-Fc or rat IgG in PBS (control mice received rat IgG since both the NgR and the Pc moiety were of rat origin). Pumps were replaced after 28 days and connected to the same cannula. The total dose of protein infused was 2.5 mg per mouse over 56 days. At the end of this period, mice were sacrificed and brain AB levels were measured using an ELISA kit from Biosource International according to the manufacturer's instructions. Aβ deposition into amyloid plaques was assessed by anti-Aβ immunohistochemistry as follows. Aβ plaques in sagittal sections of 4% paraformaldehyde fixed brain were detected immunohistologically with anti-Aβ(1-17) 6E10 antibody after 0.1 M formic acid treatment for antigen recovery. Plaque area was quantitated using NIH Image as a percentage of cerebral cortical area for 3 sections from each animal.

B1: AP-Aβ: fusion protein of alkaline phosphatase (AP) and the hydrophilic region of Aβ (amino acids 1-28) (protein)
chain: HHHHHHIIPVEEENPDFWNREAAEALGAAKKLQPAQTAAKNLIIFLGDGMGVSTVTAARILKGQKKDKLGPEIPLAMDRFPYVALSKTYNVDKHVPDSGATATAYLCGVKGNFQTIGLSAAARFNQCNTTRGNEVISVMNRAKKAGKSVGVVTTTRVQHASPAGTYAHTVNRNWYSDADVPASARQEGCQDIATQLISNMDIDVILGGGRKYMFRMGTPDPEYPDDYSQGGTRLDGKNLVQEWLAKRQGARYVWNRTELMQASLDPSVTHLMGLFEPGDMKYEIHRDSTLDPSLMEMTEAALRLLSRNPRGFFLFVEGGRIDHGHHESRAYRALTETIMFDDAIERAGQLTSEEDTLSLVTADHSHVFSFGGYPLRGSSIFGLAPGKARDRKAYTVLLYGNGPGYVLKDGARPDVTESESGSPEYRQQSAVPLDEETHAGEDVAVFARGPQAHLVHGVQEQTFIAHVMAFAACLEPYTACDLAPPAGTTDAAHPGDAEFRHDSGYEVHHQKLVFFAEDVGSNK
binding to NgR-expressing COS cells (NgR): bound

B2: sNgR310-Fc: contains the entire LRR ligand-binding of the NgR fused to the Fc portion of IgG; NgR and Fc of rat origin (protein)
chain: CPGACVCYNEPKVTTSRPQQGLQAVPAGIPASSQRIFLHGNRISYVPAASFQSCRNLTILWLHSNALAGIDAAAFTGLTLLEQLDLSDNAQLRVVDPTTFRGLGHLHTLHLDRCGLQELGPGLFRGLAALQYLYLQDNNLQALPDNTFRDLGNLTHLFLHGNRIPSVPEHAFRGLHSLDRLLLHQNHVARVHPHAFRDLGRLMTLYLFANNLSMLPAEVLVPLRSLQYLRLNDNPWVCDCRARPLWAWLQKFRGSSSGVPSNLPQRLAGRDLKRLATSDLEGCA
modifications: left off: a dimerising Fc or GST
notes: NgR and Fc of rat origin
binding of Aβ peptides (Aβ peptides): bind | deposition of immunoreactive Aβ into plaque ([1]; right lateral ventricle, vs rat IgG, anti-Aβ immunohistochemistry): significantly reduced | decrease of total level of Aβ(1-40) in the brain ([1]; right lateral ventricle, ELISA): 50% | decrease of total level of Aβ(1-42) in the brain ([1]; right lateral ventricle, ELISA): 50% | sAPPα levels in the brains ([1]; immunoprecipitation and immunoblot): decreased

B3: sNgR344-Fc: rat soluble NgR 344 Fc fusion (protein)
chain: CPGACVCYNEPKVTTSRPQQGLQAVPAGIPASSQRIFLHGNRISYVPAASFQSCRNLTILWLHSNALAGIDAAAFTGLTLLEQLDLSDNAQLRVVDPTTFRGLGHLHTLHLDRCGLQELGPGLFRGLAALQYLYLQDNNLQALPDNTFRDLGNLTHLFLHGNRIPSVPEHAFRGLHSLDRLLLHQNHVARVHPHAFRDLGRLMTLYLFANNLSMLPAEVLVPLRSLQYLRLNDNPWVCDCRARPLWAWLQKFRGSSSGVPSNLPQRLAGRDLKRLATSDLEGCAVASGPFRPFQTNQLTDEELLGLPKCCQPDAADKA
modifications: left off: a dimerising Fc or GST
notes: rat soluble NgR 344 Fc fusion
binding of Aβ peptides (Aβ peptides): bind
